Laboratory results reported in US11795460B2, “Compositions and methods for TTR gene editing and treating ATTR amyloidosis” (Intellia Therapeutics, Inc., priority 2017, dated 2023).
Strand notation (5' to 3'): a small letter for the sugar, then the base; units joined by * are phosphorothioate-linked, units joined directly phosphodiester-linked; [ ] holds rarer units or linkages, { } end groups; capitals alone tell only the bases. m = 2'-O-methyl; r = 2'-OH (RNA)

B1: G000492: TTR sgRNA modified sequence, Human, SEQ ID No. 99; guide sequence of CR003342 (nucleic acid)
guide: mC*mU*mU*rCrUrCrUrArCrArCrCrCrArGrGrGrCrArCrGrUrUrUrUrArGrAmGmCmUmAmGmAmAmAmUmAmGmCrArArGrUrUrArArArArUrArArGrGrCrUrArGrUrCrCrGrUrUrArUrCrAmAmCmUmUmGmAmAmAmAmAmGmUmGmGmCmAmCmCmGmAmGmUmCmGmGmUmGmCmU*mU*mU*mU
B2: G000496: TTR sgRNA modified sequence, Human, SEQ ID No. 103; guide sequence of CR005304 (nucleic acid)
guide: mG*mG*mC*rCrGrUrGrCrArUrGrUrGrUrUrCrArGrArArGrUrUrUrUrArGrAmGmCmUmAmGmAmAmAmUmAmGmCrArArGrUrUrArArArArUrArArGrGrCrUrArGrUrCrCrGrUrUrArUrCrAmAmCmUmUmGmAmAmAmAmAmGmUmGmGmCmAmCmCmGmAmGmUmCmGmGmUmGmCmU*mU*mU*mU
B3: G000568: TTR sgRNA modified sequence, Human, SEQ ID No. 110; guide sequence of CR003391 (nucleic acid)
guide: mG*mG*mC*rUrGrUrCrGrUrCrArCrCrArArUrCrCrCrArGrUrUrUrUrArGrAmGmCmUmAmGmAmAmAmUmAmGmCrArArGrUrUrArArArArUrArArGrGrCrUrArGrUrCrCrGrUrUrArUrCrAmAmCmUmUmGmAmAmAmAmAmGmUmGmGmCmAmCmCmGmAmGmUmCmGmGmUmGmCmU*mU*mU*mU
B4: G000570: TTR sgRNA modified sequence, Human, SEQ ID No. 111; guide sequence of CR003347 (nucleic acid)
guide: mC*mA*mU*rUrGrArUrGrGrCrArGrGrArCrUrGrCrCrUrGrUrUrUrUrArGrAmGmCmUmAmGmAmAmAmUmAmGmCrArArGrUrUrArArArArUrArArGrGrCrUrArGrUrCrCrGrUrUrArUrCrAmAmCmUmUmGmAmAmAmAmAmGmUmGmGmCmAmCmCmGmAmGmUmCmGmGmUmGmCmU*mU*mU*mU
B5: G000571: TTR sgRNA modified sequence, Human, SEQ ID No. 112; guide sequence of CR005301 (nucleic acid)
guide: mG*mU*mC*rArCrArGrArArArCrArCrUrCrArCrCrGrUrGrUrUrUrUrArGrAmGmCmUmAmGmAmAmAmUmAmGmCrArArGrUrUrArArArArUrArArGrGrCrUrArGrUrCrCrGrUrUrArUrCrAmAmCmUmUmGmAmAmAmAmAmGmUmGmGmCmAmCmCmGmAmGmUmCmGmGmUmGmCmU*mU*mU*mU
B6: G000500: TTR sgRNA modified sequence, Human, SEQ ID No. 107; guide sequence of CR003337 (nucleic acid)
guide: mC*mC*mA*rGrUrCrCrArGrCrArArGrGrCrArGrArGrGrGrUrUrUrUrArGrAmGmCmUmAmGmAmAmAmUmAmGmCrArArGrUrUrArArArArUrArArGrGrCrUrArGrUrCrCrGrUrUrArUrCrAmAmCmUmUmGmAmAmAmAmAmGmUmGmGmCmAmCmCmGmAmGmUmCmGmGmUmGmCmU*mU*mU*mU
B7: G000493: TTR sgRNA modified sequence, Human, SEQ ID No. 100; guide sequence of CR003368 (nucleic acid)
guide: mA*mA*mG*rUrGrCrCrUrUrCrCrArGrUrArArGrArUrUrGrUrUrUrUrArGrAmGmCmUmAmGmAmAmAmUmAmGmCrArArGrUrUrArArArArUrArArGrGrCrUrArGrUrCrCrGrUrUrArUrCrAmAmCmUmUmGmAmAmAmAmAmGmUmGmGmCmAmCmCmGmAmGmUmCmGmGmUmGmCmU*mU*mU*mU
B8: G000490: TTR sgRNA modified sequence, Human, SEQ ID No. 97; guide sequence of CR003366 (nucleic acid)
guide: mA*mA*mA*rUrArGrArCrArCrCrArArArUrCrUrUrArCrGrUrUrUrUrArGrAmGmCmUmAmGmAmAmAmUmAmGmCrArArGrUrUrArArArArUrArArGrGrCrUrArGrUrCrCrGrUrUrArUrCrAmAmCmUmUmGmAmAmAmAmAmGmUmGmGmCmAmCmCmGmAmGmUmCmGmGmUmGmCmU*mU*mU*mU
B9: G000495: TTR sgRNA modified sequence, Human, SEQ ID No. 102; guide sequence of CR003343 (nucleic acid)
guide: mC*mA*mG*rArGrGrArCrArCrUrUrGrGrArUrUrCrArCrGrUrUrUrUrArGrAmGmCmUmAmGmAmAmAmUmAmGmCrArArGrUrUrArArArArUrArArGrGrCrUrArGrUrCrCrGrUrUrArUrCrAmAmCmUmUmGmAmAmAmAmAmGmUmGmGmCmAmCmCmGmAmGmUmCmGmGmUmGmCmU*mU*mU*mU
B10: G000567: TTR sgRNA modified sequence, Human, SEQ ID No. 109; guide sequence of CR003352 (nucleic acid)
guide: mG*mA*mA*rArGrGrCrUrGrCrUrGrArUrGrArCrArCrCrGrUrUrUrUrArGrAmGmCmUmAmGmAmAmAmUmAmGmCrArArGrUrUrArArArArUrArArGrGrCrUrArGrUrCrCrGrUrUrArUrCrAmAmCmUmUmGmAmAmAmAmAmGmUmGmGmCmAmCmCmGmAmGmUmCmGmGmUmGmCmU*mU*mU*mU
B11: G000501: TTR sgRNA modified sequence, Human, SEQ ID No. 108; guide sequence of CR005300 (nucleic acid)
guide: mU*mC*mA*rCrArGrArArArCrArCrUrCrArCrCrGrUrArGrUrUrUrUrArGrAmGmCmUmAmGmAmAmAmUmAmGmCrArArGrUrUrArArArArUrArArGrGrCrUrArGrUrCrCrGrUrUrArUrCrAmAmCmUmUmGmAmAmAmAmAmGmUmGmGmCmAmCmCmGmAmGmUmCmGmGmUmGmCmU*mU*mU*mU
B12: G000497: TTR sgRNA modified sequence, Human, SEQ ID No. 104; guide sequence of CR003335 (nucleic acid)
guide: mC*mU*mG*rCrUrCrCrUrCrCrUrCrUrGrCrCrUrUrGrCrGrUrUrUrUrArGrAmGmCmUmAmGmAmAmAmUmAmGmCrArArGrUrUrArArArArUrArArGrGrCrUrArGrUrCrCrGrUrUrArUrCrAmAmCmUmUmGmAmAmAmAmAmGmUmGmGmCmAmCmCmGmAmGmUmCmGmGmUmGmCmU*mU*mU*mU
B13: G000487: TTR sgRNA modified sequence, Human, SEQ ID No. 94; guide sequence of CR003357 (nucleic acid)
guide: mU*mU*mC*rUrUrUrGrGrCrArArCrUrUrArCrCrCrArGrGrUrUrUrUrArGrAmGmCmUmAmGmAmAmAmUmAmGmCrArArGrUrUrArArArArUrArArGrGrCrUrArGrUrCrCrGrUrUrArUrCrAmAmCmUmUmGmAmAmAmAmAmGmUmGmGmCmAmCmCmGmAmGmUmCmGmGmUmGmCmU*mU*mU*mU
B14: G000498: TTR sgRNA modified sequence, Human, SEQ ID No. 105; guide sequence of CR003359 (nucleic acid)
guide: mA*mG*mU*rGrArGrUrCrUrGrGrArGrArGrCrUrGrCrArGrUrUrUrUrArGrAmGmCmUmAmGmAmAmAmUmAmGmCrArArGrUrUrArArArArUrArArGrGrCrUrArGrUrCrCrGrUrUrArUrCrAmAmCmUmUmGmAmAmAmAmAmGmUmGmGmCmAmCmCmGmAmGmUmCmGmGmUmGmCmU*mU*mU*mU
B15: G000491: TTR sgRNA modified sequence, Human, SEQ ID No. 98; guide sequence of CR003338 (nucleic acid)
guide: mA*mU*mA*rCrCrArGrUrCrCrArGrCrArArGrGrCrArGrGrUrUrUrUrArGrAmGmCmUmAmGmAmAmAmUmAmGmCrArArGrUrUrArArArArUrArArGrGrCrUrArGrUrCrCrGrUrUrArUrCrAmAmCmUmUmGmAmAmAmAmAmGmUmGmGmCmAmCmCmGmAmGmUmCmGmGmUmGmCmU*mU*mU*mU

System: off-target genomic sites
Assay: Off-target oligo insertion based assay in HEK293_Cas9 cells, dgRNAs and sgRNAs (Tables 23, 24)
Type: cell-based, human
Details: for # Sites (off-target integration sites detected): Table 24, TTR sgRNAs in HekCas9 cells, insertion detection method; for # Sites in HekCas9 cells (Example 5): Table 30, TTR sgRNAs, repeated from Example 5 for comparison
How it was run: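 In HEK293 cells constitutively expressing Spy Cas9, crRNA (15 nM) plus trRNA (15 nM), or modified sgRNAs, were lipofected with donor oligo (10 nM). Genomic DNA was collected at 24 h, and oligo-insertion libraries were sequenced on MiSeq/HiSeq to map potential off-target cleavage sites.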

Molecule | # Sites (off-target integration sites detected) | # Sites in HekCas9 cells (Example 5)
B1 | 97 | 97
B2 | 1 | 1
B3 | 937 | 936
B4 | 19 | 19
B5 | 16 | 16
B6 | 46 | 46
B7 | 7 | 7
B8 | 12 | 12
B9 | 13 | 13
B10 | 9 | 9
B11 | 4 | 4
B12 | 26 | 26
B13 | 14 | 14
B14 | 82 | 82
B15 | 28 | 28
